In US20240238374A1, “METHODS AND COMPOSITIONS FOR INDUCING BROWN ADIPOGENESIS” (ENERGESIS PHARMACEUTICALS, INC., priority 2021, published 2024):

Tested on: Diet-Induced Obese (DIO) mouse
Assay: Diet-Induced Obese (DIO) mouse study: hFGF7 alone and with semaglutide, 28 days of dosing
Assay type: in vivo, C57Bl/6 mice
Settings: DIO mice
Protocol: Obesity and insulin resistance, an early stage in the development of type 2 diabetes (also known as pre-diabetes), was induced in C57Bl/6 mice by feeding the mice with a high fat diet (Research Diets, Cat #D12492, 60% fat kcal) for 12 weeks starting at 6 weeks of age, and throughout the period of compound dosing. The mice were housed at 22-23° C. and abundant nestlets/bedding material was provided to allow the animals to maintain a microenvironment close to their thermoneutrality of 28-30° C., starting 2 weeks prior to the dosing period and for the full dosing period with a 12 h/12 h light/dark cycle. These environmental conditions are understood by those skilled in the art to reduce the stimulus for maintaining BAT, a thermogenic tissue that is recruited physiologically by cold stimulus, and permit a wider window for observing effects related to BAT recruitment.
Mice were dosed once per day by intraperitoneal injection (100 μl per mouse) with vehicle (9.6 mg/ml mannitol, 4.8 mg/ml sucrose, 0.37 mg/ml L-histidine, 0.025 mg/ml polysorbate 20 (Tween 20, CAS #9005-64-5), […], also referred to as EGS0501 in corresponding figures) dissolved in the vehicle for 28 days. In addition, some mice also received semaglutide (0.012 mg/kg=3 nmol/kg) every 3 days by intraperitoneal injection (100 μl per mouse) dissolved in the vehicle.
Body weight was recorded every day and body composition (fat and lean mass with EchoMRI) was assessed at the end of the study (University of Cincinnati Mouse Metabolic Phenotyping Center). At the end of the dosing period, animals were fasted for 6 hours and euthanized by CO2, blood was collected, and plasma was isolated and frozen at −20° C. Plasma glucose, insulin and leptin levels were assessed at baseline and at the end of the dosing period (mice were fasted for 6 hours before all plasma collection) (University of Cincinnati Mouse Metabolic Phenotyping Center). Insulin sensitivity was determined by HOMA-IR.
Data from in vivo mouse studies are presented as means±SEM. Significance values were evaluated based on the unpaired two-tailed t-test versus vehicle using GraphPad Prism version 7 or 8 (GraphPad Software, San Diego, CA). To assess synergistic effects of A and B, the combination A+B was compared to the sum of A alone and B alone. To quantify synergistic effects, we used percent changes from baseline when baseline data were available and used the difference from vehicle for parameters without baseline data.

B1: hFGF7: recombinant human Fibroblast Growth Factor-7, also referred to as EGS0501; SEQ ID NO: 8 is the sequence for human FGF7 (protein, listed as Homo sapiens)
chain: MHKWILTWILPTLLYRSCFHIICLVGTISLACNDMTPEQMATNVNCSSPERHTRSYDYMEGGDIRVRRLFCRTQWYLRIDKRGKVKGTQEMKNNYNIMEIRTVAVGIVAIKGVESEFYLAMNKEGKLYAKKECNEDCNFKELILENHYNTYASAKWTHNGGEMFVALNQKGIPVRGKKTKKEQKTAHFLPMAIT
modifications: (1)..(194) Fibroblast Growth Factor-7
B1 was tested, and the “plasma glucose compared to vehicle” value (hFGF7 0.5 mg/kg ip once a day) was “significant effect”, the “body weight compared to vehicle” value (hFGF7 1 mg/kg ip once a day) was “significant decreases” and the “epididymal white adipose (WATepi) depot weight compared to vehicle” value (hFGF7 1 mg/kg ip once a day) was “significant decreases”. The “insulin resistance index (HOMA-IR) compared to vehicle” value (hFGF7 1 mg/kg ip once a day) was “significant decreases”, the “plasma glucose compared to vehicle” value (hFGF7 1 mg/kg ip once a day) was “significant decreases” and the “plasma insulin compared to vehicle” value (hFGF7 1 mg/kg ip once a day) was “significant decreases”. The “plasma leptin compared to vehicle” value (hFGF7 1 mg/kg ip once a day) was “significant decreases”.
